Results as given in article PMC9352680, “A comprehensive thermodynamic model for RNA binding by the Saccharomyces cerevisiae Pumilio protein PUF4”.

T1: PUF4 RNA-binding domain (Saccharomyces cerevisiae, UniProt P25339 537-888)
T1 sequence: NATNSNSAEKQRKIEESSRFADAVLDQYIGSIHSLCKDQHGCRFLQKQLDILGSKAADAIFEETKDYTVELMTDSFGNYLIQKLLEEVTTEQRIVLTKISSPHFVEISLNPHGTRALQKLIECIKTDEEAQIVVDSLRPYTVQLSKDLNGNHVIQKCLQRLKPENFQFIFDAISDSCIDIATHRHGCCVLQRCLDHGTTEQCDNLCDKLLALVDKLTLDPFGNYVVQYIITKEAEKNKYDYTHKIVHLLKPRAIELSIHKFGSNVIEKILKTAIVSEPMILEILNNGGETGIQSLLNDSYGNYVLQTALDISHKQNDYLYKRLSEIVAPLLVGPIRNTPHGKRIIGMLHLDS


Target: T1, PUF4 RNA-binding domain
Experiment: Mg; RNA-MaP; 20 mM Na-HEPES pH 7.4, 30 mM KOAc, 0.75 mM MgCl2, 0.1% Tween-20, 5% glycerol, 0.1 mg/mL BSA, 2 mM DTT; 25 C; 0.0125-409.6 nM protein
Conditions: tags: N-His6-TEV cleaved; C-SNAP kept, Cy3B-labelled; label: tethered on chip by stalled RNA polymerase

Row | Binder | Kd [nM]
1 | UCUCUUUGUAAUUUAUCUCUU (ssRNA) [Ic_S1_P4E.1_K4.1_C4.1_H4.1_A4.1_[T5A]_[A6T]_F4.1_T4.1] | 3.77
2 | UCUCUUUGUACACUAUCUCUU (ssRNA) [Ib_S1_P4E.1_K4.1_C4.1_H4.1_A4.1_[T5C]_[T7C]_F4.1_T4.1] | 0.824
3 | UCUCUUCUACACUAUUAUCUCUCUU (ssRNA) [Id_ii_S1_P4E.4_K4.3_C4.2_H4.3_A4.1_F4.1_T4.2_[G10T]_[T11C]] | 1700
4 | UCUCUUAUACACUAUUAAUUCUCUU (ssRNA) [Id_ii_S1_P4E.4_K4.3_C4.2_[C-2A]_H4.3_A4.1_F4.1_T4.2_[G10A]] | 35.2
5 | UCUCUUAAACACUAUUAGCUCUCUU (ssRNA) [Id_ii_S1_P4E.4_K4.3_C4.2_[C-2A]_[T-1A]_H4.3_A4.1_F4.1_T4.2_[T11C]] | > 2300
6 | UCUCUUAAACACUAUUACCUCUCUU (ssRNA) [Id_ii_S1_P4E.4_K4.3_C4.2_[C-2A]_[T-1A]_H4.3_A4.1_F4.1_T4.2_[G10C]_[T11C]] | > 2300
7 | UCUCUUAUACACUAUUACGUCUCUU (ssRNA) [Id_ii_S1_P4E.4_K4.3_C4.2_[C-2A]_H4.3_A4.1_F4.1_T4.2_[G10C]_[T11G]] | 32.1
8 | UCUCUUUGUACUUUAUCUCUU (ssRNA) [Ib_S1_P4E.1_K4.1_C4.1_H4.1_A4.1_[T5C]_[A6T]_F4.1_T4.1] | 2.73
9 | UCUCUUCCACACUAUUACGUCUCUU (ssRNA) [Id_ii_S1_P4E.4_K4.3_C4.2_[T-1C]_H4.3_A4.1_F4.1_T4.2_[G10C]_[T11G]] | > 2300
10 | UCUCUUUGUACCUUAUCUCUU (ssRNA) [Ib_S1_P4E.1_K4.1_C4.1_H4.1_A4.1_[T5C]_[A6C]_F4.1_T4.1] | 3.61
11 | UCUCUUUGUAUUAAUAUCUCUU (ssRNA) [Ia_S1_P5E.1_K5.1_C5.1_H5.1_A5.1_F5.1_[T8A]_T5.1] | 9.4
12 | UCUCUUCCACACUAUUAGCUCUCUU (ssRNA) [Id_ii_S1_P4E.4_K4.3_C4.2_[T-1C]_H4.3_A4.1_F4.1_T4.2_[T11C]] | > 2300
13 | UCUCUUAUACACUAUUAAAUCUCUU (ssRNA) [Id_ii_S1_P4E.4_K4.3_C4.2_[C-2A]_H4.3_A4.1_F4.1_T4.2_[G10A]_[T11A]] | 24.2
14 | UCUCUUAAACACUAUUAUUUCUCUU (ssRNA) [Id_ii_S1_P4E.4_K4.3_C4.2_[C-2A]_[T-1A]_H4.3_A4.1_F4.1_T4.2_[G10T]] | > 2300
15 | UCUCUUAUACACUAUUAUAUCUCUU (ssRNA) [Id_ii_S1_P4E.4_K4.3_C4.2_[C-2A]_H4.3_A4.1_F4.1_T4.2_[G10T]_[T11A]] | 31.1
16 | UCUCUUCCACACUAUUACAUCUCUU (ssRNA) [Id_ii_S1_P4E.4_K4.3_C4.2_[T-1C]_H4.3_A4.1_F4.1_T4.2_[G10C]_[T11A]] | > 2300

Row | Binder | Kd [nM]
17 | UCUCUUAUACACUAUUAACUCUCUU (ssRNA) [Id_ii_S1_P4E.4_K4.3_C4.2_[C-2A]_H4.3_A4.1_F4.1_T4.2_[G10A]_[T11C]] | 37.5
18 | UCUCUUUGUGUAUUAUUAACUCUCUU (ssRNA) [Id_ii_S1_P5E.2_K5.1_C5.2_[C-2T]_[T-1G]_H5.1_A5.1_F5.1_T5.2_[T11A]_[A12C]] | 3.86
19 | UCUCUUGCUGUAUUAUUAACUCUCUU (ssRNA) [Id_ii_S1_P5E.2_K5.1_C5.2_[C-2G]_[T-1C]_H5.1_A5.1_F5.1_T5.2_[T11A]_[A12C]] | 15.2
20 | UCUCUUACACACUAUUACUUCUCUU (ssRNA) [Id_ii_S1_P4E.4_K4.3_C4.2_[C-2A]_[T-1C]_H4.3_A4.1_F4.1_T4.2_[G10C]] | > 2300
21 | UCUCUUAUACACUAUUAUCUCUCUU (ssRNA) [Id_ii_S1_P4E.4_K4.3_C4.2_[C-2A]_H4.3_A4.1_F4.1_T4.2_[G10T]_[T11C]] | 21.8
22 | UCUCUUAAACACUAUUAUAUCUCUU (ssRNA) [Id_ii_S1_P4E.4_K4.3_C4.2_[C-2A]_[T-1A]_H4.3_A4.1_F4.1_T4.2_[G10T]_[T11A]] | > 2300
23 | UCUCUUUGUAACUUAUCUCUU (ssRNA) [Ib_S1_P4E.1_K4.1_C4.1_H4.1_A4.1_[T5A]_[A6C]_F4.1_T4.1] | 8.33
24 | UCUCUUGUUGUAUUAUUAUCUCUCUU (ssRNA) [Id_ii_S1_P5E.2_K5.1_C5.2_[C-2G]_H5.1_A5.1_F5.1_T5.2_[A12C]] | 6.74
25 | UCUCUUCGACACUAUUACUUCUCUU (ssRNA) [Id_ii_S1_P4E.4_K4.3_C4.2_[T-1G]_H4.3_A4.1_F4.1_T4.2_[G10C]] | > 2300
26 | UCUCUUGCUGUAUUAUUAUCUCUCUU (ssRNA) [Id_ii_S1_P5E.2_K5.1_C5.2_[C-2G]_[T-1C]_H5.1_A5.1_F5.1_T5.2_[A12C]] | 11.7
27 | UCUCUUAUACACUAUUAUUUCUCUU (ssRNA) [Id_ii_S1_P4E.4_K4.3_C4.2_[C-2A]_H4.3_A4.1_F4.1_T4.2_[G10T]] | 35.2
28 | UCUCUUCCACACUAUUAGAUCUCUU (ssRNA) [Id_ii_S1_P4E.4_K4.3_C4.2_[T-1C]_H4.3_A4.1_F4.1_T4.2_[T11A]] | > 2300
29 | UCUCUUGCUGUAUUAUUAAUUCUCUU (ssRNA) [Id_ii_S1_P5E.2_K5.1_C5.2_[C-2G]_[T-1C]_H5.1_A5.1_F5.1_T5.2_[T11A]_[A12T]] | 21.6
30 | UCUCUUCCACACUAUUAACUCUCUU (ssRNA) [Id_ii_S1_P4E.4_K4.3_C4.2_[T-1C]_H4.3_A4.1_F4.1_T4.2_[G10A]_[T11C]] | > 2300
31 | UCUCUUAUACACUAUUAGUUCUCUU (ssRNA) [Id_ii_S1_P4E.4_K4.3_C4.2_[C-2A]_H4.3_A4.1_F4.1_T4.2] | 42.8
